Results as given in patent US6998383B2, “Inhibitors of receptor activator of NF-κB and uses thereof” (Research Development Corporation, priority 2001, dated 2006).

Key:
[1] = molecular target: T1, TRAF2 binding to the cytoplasmic domain of RANK (Homo sapiens, UniProt Q12933); assay: Competitive GST-pull down assay, TRAF2 binding to RANK cytoplasmic domain; settings: 100 μM peptide, FLAG-TRAF2 293 cell extract (FIG. 4C)
T1 construct: expressed in transfected cells; host or cells: human 293 cells (TRAF lysate); The GST-RANK fusion was purified as previously described
T1 sequence (Q12933 1-501): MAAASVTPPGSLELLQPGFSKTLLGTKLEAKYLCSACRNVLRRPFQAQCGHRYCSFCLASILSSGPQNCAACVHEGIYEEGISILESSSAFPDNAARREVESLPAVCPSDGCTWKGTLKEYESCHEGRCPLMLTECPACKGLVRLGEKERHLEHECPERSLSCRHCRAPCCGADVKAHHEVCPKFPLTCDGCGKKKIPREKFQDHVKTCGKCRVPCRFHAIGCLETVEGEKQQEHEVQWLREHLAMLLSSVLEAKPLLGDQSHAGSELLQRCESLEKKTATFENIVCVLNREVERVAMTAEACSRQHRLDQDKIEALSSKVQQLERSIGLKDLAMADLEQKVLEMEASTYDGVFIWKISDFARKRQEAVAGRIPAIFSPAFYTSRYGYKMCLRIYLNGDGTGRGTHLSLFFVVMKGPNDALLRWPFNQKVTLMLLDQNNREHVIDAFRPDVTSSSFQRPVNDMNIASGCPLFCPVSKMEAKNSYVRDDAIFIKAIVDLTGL
Method: (§1) Cellular extracts from human 293 cells transfected with either FLAG-TRAF2, -TRAF5, or -TRAF6 were mixed with GST or GST-RANKed in the absence or presence of 100 μM of the indicated peptides. A GST-pull down assay was performed as described below. The bound TRAFs were visualized by immunoblotting with anti-FLAG antibodies.
(§2) Equivalent amounts of GST or GST-RANK cytoplasmic domain (GST-RANKed) fusion protein attached to 20 μl of glutathione agarose beads were mixed with lysates (50 μg) from 293 cells programmed to express the epitope-tagged TRAF protein and the indicated peptides in binding buffer (20 mM TRIS, pH 8, 150 mM NaCl, 1 mM DTT, 2 mM EDTA, and 0.1% NP-40) and allowed to rotate for 1 h at 4° C. The beads were collected by centrifugation, washed three times in binding buffer, and then washed once in low-salt buffer (20 mM TRIS, pH 8, 50 mM NaCl, and 1 mM DTT). Bound proteins were eluted with addition of SDS-sample buffer and boiled. The eluted proteins were subjected to 7.5% SDS-PAGE and western blot analysis was performed with anti-FLAG antibodies.
(§3) The cytoplasmic domain of RANK interacts with many TRAF molecules, including TRAF1, 2, 3, 5, and 6 (7-9, 11, 12). While TRAF1, 2, 3, and 5 interact with the c-terminal tail of receptor activator of NF-κB, TRAF6 interacts with a membrane proximal region of the cytoplasmic domain of the receptor activator of NF-κB. […]

[2] = system: RAW264.7 cells; assay: RANKL-mediated osteoclast differentiation in RAW264.7 cells (TRAP staining); assay type: cell-based, mouse; settings: RANKL, increasing amounts of peptide, 4-5 days (FIG. 2C)
Method: RAW264.7 cells were plated in 12-well plates and stimulated with RANKL (30 ng/ml) for 4 days. Cells were stained for TRAP essentially as described below. Photographs were taken using a 10× objective lens.
RAW cells were plated as described in FIG. 2A and treated with RANKL in the presence of 1, 30, or 100 μM of peptides as indicated. On day 4 cells were stained and evaluated as in FIG. 2A.
RAW264.7 cells were plated in 48-well plates in triplicate and treated with RANKL in the presence of increasing amounts of the indicated peptides. After 4-5 days, the cells were stained for TRAP and the total numbers of osteoclasts were counted as described below.
(§4) Primary bone marrow monocytes (BM) or RAW264.7 cells were cultured in 48-well dishes at a density of 1×10^5 cells/well or 2×10^3 cells/well, and then treated with the indicated factors at the beginning of the culture and during a medium change on day 3. Osteoclast formation was assessed by counting the total number of multi-nucleated (>3 nuclei), TRAP-positive cells present per well between day 7 and 10 (BM) or on day 5 (RAW264.7) (30).
The mouse macrophage cell line RAW264.7 express the receptor activator of NF-κB on their cell surface and when stimulated with the receptor activator of NF-κB ligand differentiate into multi-nucleated, tartrate resistant acid phosphatase (TRAP) positive osteoclasts after 4-5 days (FIG. 2A). To determine whether L-T6DP-1 could inhibit RANKL-mediated osteoclast differentiation, RAW264.7 cells were co-cultured with increasing concentrations of either L-T6DP-1. or T6DP-1 and 30 ng/ml RANKL for 4 days.

[3] = system: bone marrow-derived mouse monocytes; assay: RANKL and M-CSF-mediated osteoclast differentiation in bone marrow-derived mouse monocytes (TRAP staining); assay type: cell-based; settings: M-CSF 10 ng/ml and RANKL 30 ng/ml (FIGS. 3A, 3B)
Method: After 6-7 days, the cells were fixed and stained for TRAP. The numbers of multi-nucleated, TRAP positive osteoclasts were counted.
Mouse-derived monocytes were plated in 48-well plates and costimulated as in FIG. 3A with murine M-CSF (10 ng/ml) and RANKL (30 ng/ml) in the absence (left panel) or presence of the indicated peptides. After 6-7 days, the cells were fixed and stained for TRAP. A representative field from each well was taken at a magnification of 10×.
as §4
To further support the results obtained from the RAW264.7 cell line, the ability of these peptides to inhibit RANKL-mediated osteoclast differentiation in primary mouse-derived monocytes was tested. Costimulation of bone marrow-derived monocytes with RANKL and M-CSF cause osteoclast differentiation after 7-10 days, as determined by staining multi-nucleated, TRAP positive osteoclasts (30). Similar to the results with RAW264.7 cells, both L-T6DP-1 and L-T6DP-2 inhibited the development of TRAP positive osteoclast in a dose-dependent manner and L-T6DP-1 was much more efficient (FIGS. 3A and 3B).

[4] = molecular target: T2, TRAF5 binding to the cytoplasmic domain of RANK (Mus musculus, UniProt P70191); assay: Competitive GST-pull down assay, TRAF5 binding to RANK cytoplasmic domain; settings: 100 μM peptide, FLAG-TRAF5 293 cell extract (FIG. 4C)
T2 construct: expressed in transfected cells; host or cells: human 293 cells (TRAF lysate); The GST-RANK fusion was purified as previously described
Method: as §1, §2, §3

[5] = molecular target: T3, TRAF6 binding to the RANK cytoplasmic domain (Mus musculus, UniProt P70196); assay: Competitive GST-pull down assay, TRAF6 binding to RANK cytoplasmic domain; settings: 100 μM peptide, FLAG-TRAF6 293 cell extract, GST-RANK cytoplasmic domain (FIG. 4C)
T3 construct: expressed in transfected cells; host or cells: human 293 cells (TRAF lysate); The GST-RANK fusion was purified as previously described
T3 sequence (P70196 1-530): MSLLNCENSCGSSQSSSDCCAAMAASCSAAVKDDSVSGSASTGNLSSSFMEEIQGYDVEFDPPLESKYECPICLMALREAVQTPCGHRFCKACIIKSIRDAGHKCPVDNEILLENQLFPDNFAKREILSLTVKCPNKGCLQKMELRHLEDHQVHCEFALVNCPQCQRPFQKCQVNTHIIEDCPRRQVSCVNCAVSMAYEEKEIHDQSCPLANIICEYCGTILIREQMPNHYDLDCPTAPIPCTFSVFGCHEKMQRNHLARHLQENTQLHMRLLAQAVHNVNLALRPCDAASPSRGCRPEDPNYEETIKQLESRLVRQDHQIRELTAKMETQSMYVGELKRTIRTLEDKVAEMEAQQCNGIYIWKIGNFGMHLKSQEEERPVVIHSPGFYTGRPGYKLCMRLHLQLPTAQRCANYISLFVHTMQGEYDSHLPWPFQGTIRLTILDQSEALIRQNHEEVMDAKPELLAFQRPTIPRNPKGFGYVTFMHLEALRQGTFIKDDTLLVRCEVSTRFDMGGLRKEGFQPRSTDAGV
Method: as §1, §2, §3

T2 sequence (P70191 whole entry, the tested form may be a part): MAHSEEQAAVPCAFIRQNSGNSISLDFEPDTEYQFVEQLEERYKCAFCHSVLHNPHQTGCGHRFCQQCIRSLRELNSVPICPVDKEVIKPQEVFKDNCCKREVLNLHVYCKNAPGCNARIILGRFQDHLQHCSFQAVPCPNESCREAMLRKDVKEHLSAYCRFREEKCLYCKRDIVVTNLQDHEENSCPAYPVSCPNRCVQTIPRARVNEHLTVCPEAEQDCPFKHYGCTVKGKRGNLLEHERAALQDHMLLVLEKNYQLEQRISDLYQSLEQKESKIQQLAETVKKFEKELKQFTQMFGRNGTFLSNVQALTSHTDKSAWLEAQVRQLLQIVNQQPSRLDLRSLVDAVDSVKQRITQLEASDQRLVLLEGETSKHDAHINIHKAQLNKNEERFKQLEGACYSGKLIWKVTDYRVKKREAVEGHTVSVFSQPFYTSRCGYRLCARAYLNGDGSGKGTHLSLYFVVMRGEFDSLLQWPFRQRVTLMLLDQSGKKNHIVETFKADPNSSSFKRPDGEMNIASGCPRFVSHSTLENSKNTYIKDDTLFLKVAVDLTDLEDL

TRAF2 binding to the cytoplasmic domain of RANK [1]: neither L-T6DP-1 nor L-T6DP-2 inhibited
TRAF5 binding to the cytoplasmic domain of RANK [4]: neither L-T6DP-1 nor L-T6DP-2 inhibited
TRAF6 interaction with the cytoplasmic domain of RANK [5]: Only L-T6DP-1 inhibited
Substance: L-T6DP-2: Kaposi fibroblast growth factor signal sequence hydrophobic domain attached to murine RANK peptide containing a similar TRAF6-binding motif (AAVALLPAVLLALLAPFQEPLEVGE)
number of TRAP positive osteoclasts [2]: dose-dependent decrease
development of TRAP positive osteoclasts [3]: inhibited
